Marks after values point to notes of the source that are not given here.
Tests used:
[1] = tested on: patients with moderate to severe plaque psoriasis; assay: EuroQOL 5D (EQ-5D), Phase II trial; assay type: in vivo, human; settings: Week 12
Protocol: This study provided the opportunity to evaluate the validity and responsiveness to change in clinical status of PROs instruments. Patients completed the DLQI, SF-36, and EQ-5D questionnaires at baseline and at 12 weeks. Blinded investigators assessed the Psoriasis Area and Severity Index (PASI) scores and the Physician's Global Assessment (PGA) scores of enrolled patients. The responsiveness of the measures to changes in the clinical endpoints from baseline to Week 12 was assessed. Estimates of minimum important differences (MID) were derived. All analyses were performed with blinded data; findings and conclusions were not biased based on treatment condition.
Three PROs measures were used in the study and are the subject of the analyses reported here. All PROs measures were assessed at baseline and at Week 12 (or early termination, if applicable).
The EQ-5D [17,18] is a six-item, preference-based instrument designed to measure general health status. The EQ-5D has two sections: The first consists of five items to assess degree of physical functioning (mobility, self-care, usual activities, pain/discomfort, and anxiety/depression). […]
The relationship between mean change in EQ-5D and clinical responses was evaluated from baseline to Week 12. […]

[2] = tested on: patients with moderate to severe plaque psoriasis; assay: PGA, 12-week open-label weekly therapy then randomized eow or withdrawal; assay type: in vivo, human
[3] = tested on: patients with moderate to severe psoriasis; assay: PASI response, open-label extension (OLE) of REVEAL; assay type: in vivo, human
Protocol: Laboratory parameters and adverse events were also recorded.
The REVEAL study had two independent primary endpoints. The first endpoint was the proportion of patients achieving 75 percent improvement in skin clearance after 16 weeks. The second endpoint was the proportion of patients who lost adequate response through week 52 after stopping treatment with HUMIRA at week 33. Signs of psoriasis were evaluated using the Psoriasis Area and Severity Index (PASI), among other measures. […] At week 52, the start of the OLE period, patients randomized at week 33, as well as patients originally in the placebo group at week 0, were able to enter the OLE period.

[4] = tested on: patients with moderate to severe psoriasis; assay: PASI 75 response, pooled Phase II (M02-528), CHAMPION and REVEAL by prior systemic therapy; assay type: in vivo, human; settings: for PASI 75 Response: Overall: pooled studies, ITT, missing = nonresponder
Protocol: For the Phase III studies, study investigators collected patient histories of use of systemic psoriasis treatments over lifetime and response to systemic treatments administered within 12 months of study entry (patient recall of response to treatments administered more than 12 months before enrollment was not collected). For the Phase II study, patient histories of use of systemic treatments for psoriasis administered within 12 months of study entry and response to treatment within 12 months were collected. PASI response rates were assessed through Week 12 for the Phase II study and through Week 16 for the Phase III studies. Intention-to-treat analyses were conducted, with patients with missing PASI responses considered non-responders.

[5] = tested on: adult patients with moderate to severe chronic plaque psoriasis; assay: Adverse events, REVEAL 52-week Phase III trial
[6] = Week 0 of OLE, n = 233, ITT, LOCF, 40 mg eow
[7] = Week 12 of OLE, n = 233, ITT, LOCF, 40 mg eow
[8] = Week 24 of OLE, n = 233, ITT, LOCF, 40 mg eow
[9] = after 12 months of continuous adalimumab dosing, ITT (233 patients)
[10] = after 18 months, ITT (233 patients)
[11] = Adalimumab Treatment Group (540.5 PY)
[12] = Adalimumab Treatment Group, 52 weeks (540.5 PYs)
[13] = Period A, adalimumab-treated patients

Adalimumab: a human anti-TNF mAb, described in U.S. Pat. No. 6,090,382 as D2E7 (HUMIRA, Abbott Laboratories)
Mean Change in EQ-5D VAS, Change from Baseline ([1]; 40 mg eow): 18 | Mean Change in EQ-5D VAS, Change from Baseline ([1]; 40 mg weekly): 10.9 | PGA “Clear” or “Minimal” ([2]; open-label 40 mg weekly, Week 12): 66% | PGA “Clear” or “Minimal” ([2]; randomized to 40 mg eow at Week 12, Week 24): 54.4% | PASI 75 response rate [3, 6]: 85% | PASI 90 response rate [3, 6]: 84% | PASI 100 response rate [3, 6]: 87% | PASI 75 response rate [3, 7]: 59% | PASI 90 response rate [3, 7]: 60% | PASI 100 response rate [3, 7]: 63% | PASI 75 response rate [3, 8]: 35% | PASI 90 response rate [3, 8]: 33% | PASI 100 response rate [3, 8]: 34% | PASI 75 response rate [3, 9]: 85% | PASI 90 response rate [3, 9]: 59% | PASI 100 response rate [3, 9]: 35% | PASI 75 response rate [3, 10]: 87% | PASI 90 response rate [3, 10]: 63% | PASI 100 response rate [3, 10]: 34% | PASI 75 response rate ([3]; re-randomized to adalimumab at Wk 33, did not lose adequate response, after 24 weeks in OLE): 83% | PASI 75 response rate ([3]; re-randomized to adalimumab at Wk 33, lost adequate response, after 24 weeks in OLE): 55% | PASI 75 response rate ([3]; re-randomized to placebo at Wk 33, did not lose adequate response, Wk 24 of OLE adalimumab): 84% | PASI 75 response rate ([3]; re-randomized to placebo at Wk 33, lost adequate response, Wk 24 of OLE adalimumab): 55% | PASI 75 Response: Overall ([4]; Week 4): 19.4% | PASI 75 Response: Overall ([4]; Week 12): 68.1% | PASI 75 Response: Lack of Response: MTX ([4]; Week 16, patients with prior lack of response to MTX (N = 32)): 65.6% * (N = 32) | PASI 75 Response: Lack of Response: Cyclosporine ([4]; Week 16, patients with prior lack of response to cyclosporine (N = 7)): 71.4% (N = 7) | PASI 75 Response: Lack of Response: Oral PUVA ([4]; Week 16, patients with prior lack of response to oral PUVA (N = 6)): 83.3% (N = 6) | PASI 75 response rate ([4]; overall (n=921), Week 16): 72.1% | PASI 75 response rate ([4]; overall (n=966), Week 4): 19.4% | PASI 75 response rate ([4]; patients who had failed to respond to systemic therapy (n=152), Week 16): 70.4% | PASI 75 response rate ([4]; patients who had failed to respond to systemic therapy (n=160), Week 4): 15.6% | PASI 75 response rate ([4]; patients who had received systemic therapies (n=491), Week 16): 72.7% | PASI 75 response rate ([4]; patients who had received systemic therapies (n=511), Week 4): 21.7% | lymphomas ([5]; 52-week study): no lymphomas were diagnosed | opportunistic infection ([5]; 52-week study): One case of oral candidiasis | tuberculosis ([5]; 52-week study, patient PPD+ve at baseline, non-compliant with INH prophylaxis): one case of presumptive tuberculosis | Allergic Reaction, rate [5, 11]: 0.002 Event/PY | Congestive Heart Failure, rate [5, 11]: 0.002 Event/PY | Demyelinating Disorder, rate [5, 11]: 0 Event/PY | Injection Site Reaction, rate [5, 11]: 0.017 Event/PY | Lupus-like Syndrome, rate [5, 11]: 0 Event/PY | Lymphoma, rate [5, 11]: 0 Event/PY | Malignancies, excluding NMSC + lymphoma, rate [5, 11]: 0.004 Event/PY | Non-melanoma skin cancers, rate [5, 11]: 0.013 Event/PY | Tuberculosis (TB), rate [5, 11]: 0.002 Event/PY | AEs leading to withdrawal, rate [5, 12]: 0.078 Event/PY | Any AE, rate [5, 12]: 3.991 Event/PY | Serious AEs, rate [5, 12]: 0.061 Event/PY | Allergic Reaction, rate ([5]; Period A (250.2 PY)): 0.004 Event/PY | Congestive Heart Failure, rate ([5]; Period A (250.2 PY)): 0.004 Event/PY | Demyelinating Disorder, rate ([5]; Period A (250.2 PY)): 0 Event/PY | Injection Site Reaction, rate ([5]; Period A (250.2 PY)): 0.276 Event/PY | Lupus-like Syndrome, rate ([5]; Period A (250.2 PY)): 0 Event/PY | Lymphoma, rate ([5]; Period A (250.2 PY)): 0 Event/PY | Malignancies, excluding NMSC + lymphoma, rate ([5]; Period A (250.2 PY)): 0.008 Event/PY | Non-melanoma skin cancers, rate ([5]; Period A (250.2 PY)): 0.016 Event/PY | Tuberculosis (TB), rate ([5]; Period A (250.2 PY)): 0 Event/PY | AEs leading to withdrawal, rate ([5]; Period A (250.2 PYs)): 0.072 Event/PY | Any AE, rate ([5]; Period A (250.2 PYs)): 4.616 Event/PY | Serious AEs, rate ([5]; Period A (250.2 PYs)): 0.068 Event/PY | AEs leading to withdrawal, percentage ([5]; Period A (N = 814)): 1.7% | Allergic Reaction, percentage ([5]; Period A (N = 814)): 1% | Any AE, percentage ([5]; Period A (N = 814)): 62.2‡ % | Congestive Heart Failure, percentage ([5]; Period A (N = 814)): 1% | Demyelinating Disorder, percentage ([5]; Period A (N = 814)): 0% | Injection Site Reaction, percentage ([5]; Period A (N = 814)): 6.9% | Lupus-like Syndrome, percentage ([5]; Period A (N = 814)): 0% | Lymphoma, percentage ([5]; Period A (N = 814)): 0% | Malignancies, excluding NMSC + lymphoma, percentage ([5]; Period A (N = 814)): 0.2% | Non-melanoma skin cancers, percentage ([5]; Period A (N = 814)): 0.5% | Opportunistic Infections, excluding TB, percentage ([5]; Period A (N = 814)): 0% | Serious AEs, percentage ([5]; Period A (N = 814)): 1.8% | Serious Infectious AEs, percentage ([5]; Period A (N = 814)): 0.6% | Severe Infectious AEs, percentage ([5]; Period A (N = 814)): 0.7% | Tuberculosis (TB), percentage ([5]; Period A (N = 814)): 0% | Nasopharyngitis ([5]; Period A (N = 814), common AE ≧5%): 45 (5.3) n (%) | patients with serious AEs ([5]; Period A (weeks 0-16)): 1.8% | Nasopharyngitis [5, 13]: 5.3% | Sinusitis [5, 13]: 2.7% | upper respiratory tract infections [5, 13]: 7.2%

From patent US9605064B2, “Methods and compositions for treatment of skin disorders” (AbbVie Biotechnology Ltd, priority 2006, dated 2017)
